Patent US20040214993A1

Assays:
[1] = molecular target: TNF receptors on WEHI-164 cells (mouse); test: radioreceptor assay, cold TNF 10,000 ng/tube
[2] = molecular target: TNF receptors on WEHI-164 cells (mouse); test: radioreceptor assay, cold TNF 500 ng/tube
[3] = molecular target: TNF receptors on WEHI-164 cells (mouse); test: radioreceptor assay, cold TNF 5,000 ng/tube
[4] = molecular target: TNF receptors on WEHI-164 cells (mouse); test: radioreceptor assay, cold TNF 10 ng/tube
[5] = molecular target: TNF receptors on WEHI-164 cells (mouse); test: radioreceptor assay, cold TNF 0 ng/tube
[6] = molecular target: TNF receptors on WEHI-164 cells (mouse); test: radioreceptor assay, cold TNF 1 ng/tube
[7] = molecular target: TNF receptors on WEHI-164 cells (mouse); test: radioreceptor assay, cold TNF 1,000 ng/tube
[8] = molecular target: TNF receptors on WEHI-164 cells (mouse); test: radioreceptor assay, cold TNF 100 ng/tube

TNF receptors on WEHI-164 cells (mouse), sequence (P25118 30-454): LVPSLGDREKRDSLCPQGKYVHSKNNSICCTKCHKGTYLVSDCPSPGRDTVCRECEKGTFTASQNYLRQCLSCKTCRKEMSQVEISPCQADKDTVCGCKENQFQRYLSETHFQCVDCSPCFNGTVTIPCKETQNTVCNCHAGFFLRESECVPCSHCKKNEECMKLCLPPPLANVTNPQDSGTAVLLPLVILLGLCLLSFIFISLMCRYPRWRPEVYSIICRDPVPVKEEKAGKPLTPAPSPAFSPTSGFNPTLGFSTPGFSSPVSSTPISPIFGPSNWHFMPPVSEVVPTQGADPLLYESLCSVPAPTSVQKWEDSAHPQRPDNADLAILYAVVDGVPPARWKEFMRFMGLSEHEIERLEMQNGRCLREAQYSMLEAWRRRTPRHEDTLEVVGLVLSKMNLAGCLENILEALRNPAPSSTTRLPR

% SPECIFIC BINDING (of 125I TNF to WEHI-164 cells) [1]: 0%
% SPECIFIC BINDING (of 125I TNF to WEHI-164 cells) [2]: 10%
% SPECIFIC BINDING (of 125I TNF to WEHI-164 cells) [3]: 0%
% SPECIFIC BINDING (of 125I TNF to WEHI-164 cells) [4]: 64%
% SPECIFIC BINDING (of 125I TNF to WEHI-164 cells) [5]: 100%
% SPECIFIC BINDING (of 125I TNF to WEHI-164 cells) [6]: 108%
% SPECIFIC BINDING (of 125I TNF to WEHI-164 cells) [7]: 0%
% SPECIFIC BINDING (of 125I TNF to WEHI-164 cells) [8]: 11%
Substance: human recombinant TNF alpha (from UniProt P01375 1-233) (ligand)
